# B1: H247F (protein)
# chain: MELSYATTMHYRDVVFYVTTDRNRAYFVCGGCVYSVGRPCASQPGEIAKFGLVVRGTGPDDRVVANYVRSELRQRGLQDVRPIGEDEVFLDSVCLLNPNVSSELDVINTNDVEVLDECLAEYCTSLRTSPGVLISGLRVRAQDRIIELFEHPTIVNVSSHFVYTPSPYVFALAQAHLPRLPSSLEALVSGLFDGIPAPRQPLDAHNPRTDVVITGRRAPRPIAGSGAGSGGAGAKRATVSEFVQVKFIDRVGPAGVSPAPPPNNTDSSSLVPGAQDSAPPGPTLRELWWVFYAADRALEEPRADSGLTREEVRAVRGFREQAWKLFGSAGAPRAFIGAALGLSPLQKLAVYYYIIHRERRLSPFPALVRLVGRYTQRHGLYVPRPDDPVLADAINGLFRDALAAGTTAEQLLMFDLLPPKDVPVGSDVQADSTALLRFIESQRLAVPGGVISPEHVAYLGAFLSVLYAGRGRMSAATHTARLTGVTSLVLAVGDVDRLSAFDRGAAGAASRTRAAGYLDVLLTVRLARSQHGQSV
# modifications: left off: GFP (from the vector pEGFP-N1), end not stated, kept
# B2: A218E (protein)
# chain: MELSYATTMHYRDVVFYVTTDRNRAYFVCGGCVYSVGRPCASQPGEIAKFGLVVRGTGPDDRVVANYVRSELRQRGLQDVRPIGEDEVFLDSVCLLNPNVSSELDVINTNDVEVLDECLAEYCTSLRTSPGVLISGLRVRAQDRIIELFEHPTIVNVSSHFVYTPSPYVFALAQAHLPRLPSSLEALVSGLFDGIPAPRQPLDAHNPRTDVVITGRREPRPIAGSGAGSGGAGAKRATVSEFVQVKHIDRVGPAGVSPAPPPNNTDSSSLVPGAQDSAPPGPTLRELWWVFYAADRALEEPRADSGLTREEVRAVRGFREQAWKLFGSAGAPRAFIGAALGLSPLQKLAVYYYIIHRERRLSPFPALVRLVGRYTQRHGLYVPRPDDPVLADAINGLFRDALAAGTTAEQLLMFDLLPPKDVPVGSDVQADSTALLRFIESQRLAVPGGVISPEHVAYLGAFLSVLYAGRGRMSAATHTARLTGVTSLVLAVGDVDRLSAFDRGAAGAASRTRAAGYLDVLLTVRLARSQHGQSV
# modifications: left off: GFP (from the vector pEGFP-N1), end not stated, kept
# B3: Q174R (protein)
# chain: MELSYATTMHYRDVVFYVTTDRNRAYFVCGGCVYSVGRPCASQPGEIAKFGLVVRGTGPDDRVVANYVRSELRQRGLQDVRPIGEDEVFLDSVCLLNPNVSSELDVINTNDVEVLDECLAEYCTSLRTSPGVLISGLRVRAQDRIIELFEHPTIVNVSSHFVYTPSPYVFALARAHLPRLPSSLEALVSGLFDGIPAPRQPLDAHNPRTDVVITGRRAPRPIAGSGAGSGGAGAKRATVSEFVQVKHIDRVGPAGVSPAPPPNNTDSSSLVPGAQDSAPPGPTLRELWWVFYAADRALEEPRADSGLTREEVRAVRGFREQAWKLFGSAGAPRAFIGAALGLSPLQKLAVYYYIIHRERRLSPFPALVRLVGRYTQRHGLYVPRPDDPVLADAINGLFRDALAAGTTAEQLLMFDLLPPKDVPVGSDVQADSTALLRFIESQRLAVPGGVISPEHVAYLGAFLSVLYAGRGRMSAATHTARLTGVTSLVLAVGDVDRLSAFDRGAAGAASRTRAAGYLDVLLTVRLARSQHGQSV
# modifications: left off: GFP (from the vector pEGFP-N1), end not stated, kept
# B4: R250E (protein)
# chain: MELSYATTMHYRDVVFYVTTDRNRAYFVCGGCVYSVGRPCASQPGEIAKFGLVVRGTGPDDRVVANYVRSELRQRGLQDVRPIGEDEVFLDSVCLLNPNVSSELDVINTNDVEVLDECLAEYCTSLRTSPGVLISGLRVRAQDRIIELFEHPTIVNVSSHFVYTPSPYVFALAQAHLPRLPSSLEALVSGLFDGIPAPRQPLDAHNPRTDVVITGRRAPRPIAGSGAGSGGAGAKRATVSEFVQVKHIDEVGPAGVSPAPPPNNTDSSSLVPGAQDSAPPGPTLRELWWVFYAADRALEEPRADSGLTREEVRAVRGFREQAWKLFGSAGAPRAFIGAALGLSPLQKLAVYYYIIHRERRLSPFPALVRLVGRYTQRHGLYVPRPDDPVLADAINGLFRDALAAGTTAEQLLMFDLLPPKDVPVGSDVQADSTALLRFIESQRLAVPGGVISPEHVAYLGAFLSVLYAGRGRMSAATHTARLTGVTSLVLAVGDVDRLSAFDRGAAGAASRTRAAGYLDVLLTVRLARSQHGQSV
# modifications: left off: GFP (from the vector pEGFP-N1), end not stated, kept
# B5: VV211AA (protein)
# chain: MELSYATTMHYRDVVFYVTTDRNRAYFVCGGCVYSVGRPCASQPGEIAKFGLVVRGTGPDDRVVANYVRSELRQRGLQDVRPIGEDEVFLDSVCLLNPNVSSELDVINTNDVEVLDECLAEYCTSLRTSPGVLISGLRVRAQDRIIELFEHPTIVNVSSHFVYTPSPYVFALAQAHLPRLPSSLEALVSGLFDGIPAPRQPLDAHNPRTDAAITGRRAPRPIAGSGAGSGGAGAKRATVSEFVQVKHIDRVGPAGVSPAPPPNNTDSSSLVPGAQDSAPPGPTLRELWWVFYAADRALEEPRADSGLTREEVRAVRGFREQAWKLFGSAGAPRAFIGAALGLSPLQKLAVYYYIIHRERRLSPFPALVRLVGRYTQRHGLYVPRPDDPVLADAINGLFRDALAAGTTAEQLLMFDLLPPKDVPVGSDVQADSTALLRFIESQRLAVPGGVISPEHVAYLGAFLSVLYAGRGRMSAATHTARLTGVTSLVLAVGDVDRLSAFDRGAAGAASRTRAAGYLDVLLTVRLARSQHGQSV
# modifications: left off: GFP (from the vector pEGFP-N1), end not stated, kept
# B6: A232K (protein)
# chain: MELSYATTMHYRDVVFYVTTDRNRAYFVCGGCVYSVGRPCASQPGEIAKFGLVVRGTGPDDRVVANYVRSELRQRGLQDVRPIGEDEVFLDSVCLLNPNVSSELDVINTNDVEVLDECLAEYCTSLRTSPGVLISGLRVRAQDRIIELFEHPTIVNVSSHFVYTPSPYVFALAQAHLPRLPSSLEALVSGLFDGIPAPRQPLDAHNPRTDVVITGRRAPRPIAGSGAGSGGKGAKRATVSEFVQVKHIDRVGPAGVSPAPPPNNTDSSSLVPGAQDSAPPGPTLRELWWVFYAADRALEEPRADSGLTREEVRAVRGFREQAWKLFGSAGAPRAFIGAALGLSPLQKLAVYYYIIHRERRLSPFPALVRLVGRYTQRHGLYVPRPDDPVLADAINGLFRDALAAGTTAEQLLMFDLLPPKDVPVGSDVQADSTALLRFIESQRLAVPGGVISPEHVAYLGAFLSVLYAGRGRMSAATHTARLTGVTSLVLAVGDVDRLSAFDRGAAGAASRTRAAGYLDVLLTVRLARSQHGQSV
# modifications: left off: GFP (from the vector pEGFP-N1), end not stated, kept
# B7: A237V (protein)
# chain: MELSYATTMHYRDVVFYVTTDRNRAYFVCGGCVYSVGRPCASQPGEIAKFGLVVRGTGPDDRVVANYVRSELRQRGLQDVRPIGEDEVFLDSVCLLNPNVSSELDVINTNDVEVLDECLAEYCTSLRTSPGVLISGLRVRAQDRIIELFEHPTIVNVSSHFVYTPSPYVFALAQAHLPRLPSSLEALVSGLFDGIPAPRQPLDAHNPRTDVVITGRRAPRPIAGSGAGSGGAGAKRVTVSEFVQVKHIDRVGPAGVSPAPPPNNTDSSSLVPGAQDSAPPGPTLRELWWVFYAADRALEEPRADSGLTREEVRAVRGFREQAWKLFGSAGAPRAFIGAALGLSPLQKLAVYYYIIHRERRLSPFPALVRLVGRYTQRHGLYVPRPDDPVLADAINGLFRDALAAGTTAEQLLMFDLLPPKDVPVGSDVQADSTALLRFIESQRLAVPGGVISPEHVAYLGAFLSVLYAGRGRMSAATHTARLTGVTSLVLAVGDVDRLSAFDRGAAGAASRTRAAGYLDVLLTVRLARSQHGQSV
# modifications: left off: GFP (from the vector pEGFP-N1), end not stated, kept
# Test system: endogenous PP1α
# Assay: GFP affinity capture / co-IP of endogenous PP1α with GFP-tagged bait
# Format: binding, human
# Conditions: HEK 293T cells, 24 h post-transfection, GFP-Trap, immunoblot; representative of two independent experiments
# From the text: Bacterial expression plasmids encoding the mouse PP1γ catalytic domain (residues 7–300)-H6 and pUL21-H6, and mammalian expression vectors encoding pUL21(FV242AA)-GFP, pORF38-GFP and pORF38(FV255AA)-GFP, were described previously ([23]). We note that the mouse and human PP1γ catalytic domains share 100% amino acid identity. pORF38-NLT-H6 was generated by sub-cloning residues 1 to 263 of ORF38 into the vector pOPTnH ([52]). pUL21-RVxF-H6 was generated by inserting the mutations A237V and V239F into pUL21-H6 by QuikChange site-directed mutagenesis. Human PP1α was cloned from HeLa cell cDNA into a vector derived from pF5K (Promega) with an N-terminal Myc epitope tag via restriction-based cloning, and point mutations were introduced into Myc-PP1α by QuikChange mutagenesis. A plasmid encoding pUL21-GFP was generated by sub-cloning a codon-optimized synthetic UL21 gene (GeneArt) into pEGFP-N1 (Clontech), yielding an identical pUL21-GFP amino acid sequence as used in ([23]). pUL21-ΔL, -ΔR and -ΔLR were generated from this vector via inverse PCR, and point mutations were introduced via QuikChange mutagenesis.
# Mycoplasma-free human embryonic kidney 293T (HEK 293T) cells (American Type Culture Collection #CRL-3216) were maintained in Dulbecco’s modified Eagle’s medium (DMEM) with high glucose (Merck), supplemented with 10% (v/v) heat-inactivated fetal calf serum and 2 mM L-glutamine (complete DMEM) in a humidified 5% CO2 atmosphere at 37 °C. The identity of the cell line was not independently confirmed.
# Monolayers of HEK 293T cells were transfected with 7.7 μg of DNA per 9 cm dish, using 18 μg/ml 25 kDa branched polyethylenimine (Merck) or using TransIt-LT1 (Mirus) in accordance with the manufacturer’s instructions. Cells were harvested 24 h post-transfection and incubated for 30 min in ice-cold 10 mM Tris pH 7.5, 150 mM NaCl, 0.5 mM EDTA, 0.5% Igepal CA-630 (a.k.a. NP-40), 1% (v/v) EDTA-free protease inhibitor cocktail (Merck) before clarification at 21,000×g for 10 min at 4 °C. Lysate protein concentrations were measured using the bicinchoninic acid (BCA) assay (Pierce) and normalized before affinity capture using GFP-Trap resin (ChromoTek) following the manufacturer’s protocol. Samples were eluted by heating the resin to 95 °C for 5 min in 45 μl 2 × SDS-PAGE loading buffer. Proteins were separated by SDS-PAGE and transferred to 0.45 μm nitrocellulose membranes (PerkinElmer or Cytiva). Membranes were stained with Ponceau S and imaged using a G:Box XX9 (Syngene) before blocking in Tris-buffered saline with 0.1% TWEEN-20 (TBS-T) supplemented with 5% (w/v) non-fat milk powder. Immunoblotting was performed using antibodies diluted in blocking buffer as listed below, and immunoblots were imaged using an Odyssey CLx (LI-COR Biosciences). Densitometry was performed using Image Studio Lite version 5.2 (LI-COR Biosciences), and statistical tests were performed using Prism version 7 (GraphPad).
# The following primary antibodies and dilutions were used for immunoblotting: rabbit anti-CERT 1:10,000 (Abcam #Ab72536), mouse anti-PP1α 1:1000 (Santa Cruz #sc-271762), mouse anti-Myc 1:4000 (Millipore #05–724), rat anti-tubulin (clone YL1/2) hybridoma supernatant 1:40 ([54]). The anti-CERT antibody was validated using a knock-out cell line. The anti-PP1α antibody has been validated by siRNA knockdown ([55]). The anti-Myc antibody was validated using control experiments lacking Myc-tagged transfected constructs ([56]). The anti-tubulin antibody has been validated by immunofluorescence microscopy, immuno-electron microscopy and radiolabeled immunosorbent assay ([54]). Secondary antibodies from LI-COR Biosciences were diluted 1:10,000 as follows: IRDye 680RD goat anti-rat (#926–68029) and goat anti-mouse (#926–68020), or IRDye 800CW goat anti-rabbit (#926–32221).
row,Molecule,Co-IP of endogenous PP1α
1,B1,co-precipitated more PP1α than did WT pUL21-GFP
2,B2,PP1α coIP was abolished
3,B3,PP1α coIP was abolished
4,B4,dramatically reduced binding
5,B5,PP1α coIP was abolished
6,B6,did not dramatically alter PP1α coIP
7,B7,co-precipitated more PP1α than did WT pUL21-GFP
